From publication PMC7246916, “14-3-3 Proteins and Other Candidates form Protein-Protein Interactions with the Cytosolic C-terminal End of SOS1 Affecting Its Transport Activity” (International Journal of Molecular Sciences, 2020)

T1: recombinant (10xHis)-labelled At14-3-3ω (Arabidopsis thaliana, UniProt Q01525 1-259)
T1 construct: 14-3-3 isoform omega, Arabidopsis thaliana; Construct details are in the Suppl; Methods; also called His-tagged 14-3-3ω protein; source: host in the Suppl; Methods
T1 sequence (looked up): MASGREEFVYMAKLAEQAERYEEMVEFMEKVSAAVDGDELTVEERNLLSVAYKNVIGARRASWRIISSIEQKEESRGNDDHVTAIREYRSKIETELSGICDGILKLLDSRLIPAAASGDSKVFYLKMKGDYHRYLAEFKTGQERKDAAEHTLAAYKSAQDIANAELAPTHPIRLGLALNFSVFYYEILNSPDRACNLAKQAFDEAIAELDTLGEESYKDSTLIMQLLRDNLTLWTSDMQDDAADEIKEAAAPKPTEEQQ


Target: T1, recombinant (10xHis)-labelled At14-3-3ω
Experiment: peptide or protein array; 15-mer synthetic peptides of SOS1 from amino acid 446, overlapping by 12, spotted on a cellulose membrane; incubated with recombinant 10xHis-14-3-3ω; anti-His antibody, HRP-coupled anti-mouse antibody, ECL
Conditions: both partners purified

binding result	Binder
binds	NTMVESSDEEDEDEG (SOS1 (NHX7), Arabidopsis thaliana; source: synthetic peptide, immobilized on a cellulose membrane) [SOS1 C-term 15-mer peptide, spot H14]
binds	TRQNTMVESSDEEDE (SOS1 (NHX7), Arabidopsis thaliana; source: synthetic peptide, immobilized on a cellulose membrane) [SOS1 C-term 15-mer peptide, spot H13]
